Experimental data: patent publication US10087260B2, “Anti-HER2 antibody and conjugate thereof” (REMEGEN, LTD., priority 2013, dated 2018)
Entries after “also recorded” stand apart in the source; their conditions may differ. Square brackets hold non-standard residues; d marks the D form. Peptide text beside a SMILES is read from it. * marks the point of attachment. Dolaproine = CO[C@@H]([C@@H]1CCCN1)[C@@H](C)C(=O)O; Dil = CC[C@H](C)[C@H](NC)[C@@H](CC(=O)O)OC; X1 = C[C@@H](N*)[C@@H](O)c1ccccc1; NMeV = CN[C@H](C(=O)O)C(C)C

Tests used:
[1] = system: chronic non-Hodgkin's lymphocytoma (NHL); conditions: cited from earlier work
[2] = system: recurrent or refractory Hodgkin's lymphoma; conditions: cited from earlier work
[3] = system: NCI-N87 human gastric cancer; test: NCI-N87 human gastric cancer nude mouse subcutaneous transplantation tumor model; assay type: in vivo; conditions: 200 mg/kg, dosing once per week, for 21 days
Procedure: [Worded in the source for another cell line; this cell line is reported under the same test.] (§1) SPF-level BALB/c nude mice were inoculated subcutaneously with a certain amount of BT-474/L1.9 tumor cells, and after the tumor growing to 100-200 mm3, the animals were randomly grouped. […] The tumor volume was measured 2 times a week. […] The data were recorded. The tumor volume and the tumor-inhibition rate of each tumor-bearing mouse were calculated at different observation time points.

[4] = system: BT-474/L1.9 human breast cancer; test: Herceptin- and Lapatinib-resistant BT-474/L1.9 nude mouse subcutaneous transplantation tumor model; assay type: in vivo
Procedure: as §1

[5] = Toxicity in SD rat, single intravenous infusion; assay type: in vivo
Procedure: SPF-level SD rats (the certificate No. is SCXK (jing)2012-0001) purchased from Beijing Vital River Laboratories Animal Technology Co, Ltd. were randomly divided into 7 groups according to gender, in which there were 10 rats in a group with half male and half female. These 7 groups included physiological saline negative control group, 0.48 mg/kg MMAE control group, 40 mg/kg RC48 naked antibody control group and series of RC48-vc-MMAE dose groups, in which the rats were dosed via tail vein infusion, and the experimental observation period was 21 days. The body weights were weighted at D1 (pre-dosing), D8, D15 and D22. After the observation period, the animals were euthanized and performed a general pathological anatomical observation, and the abnormal tissues or organs observed by the general anatomical observation were subjected to a histological examination.

HER2-ECD = target: T1, HER2-ECD (Homo sapiens, UniProt P04626); test: ELISA HER2-ECD binding affinity constant of antibodies; conditions: ELISA on coated HER2-ECD; average of 3 independent assays
T1 construct: made in house; host or cells: HEK293
Procedure: HER2-ECD as described above was used as the antigen for immunizing the mouse and monoclonal antibody generation. Immunization, hybridoma cells fusion and primary screen were conducted according to standard procedures (reference: WHO Technical Report Series, No. 822, 1992 Annex 3). Four Balb/c mice (commercially obtained from Shanghai Slac Laboratory Animal Co. Ltd.) were immunized with equal volume of well-blended 0.25 ml HER2-ECD protein (50-100 μg) and 0.25 ml Freund's complete adjuvant (Difco Lab). Two weeks later, the second injection was carried out with Freund's incomplete adjuvant (Difco Lab) in which the amount of antigen was 25-50 μg/0.5 ml/mouse. Three weeks later, the third injection was carried out in which the amount was the same with that in the second injection. Ten days after the third injection the blood was drawn. The mice serum were detected by enzyme-linked immunosorbent assay (ELISA), and the spleens of the two mice with highest anti-HER2 antibody titer in serum were taken, which were then fused with the myeloma cell P3X63Ag8 (ATCC CRL-1580). […] Murine-derived anti-HER2 antibody was detected by the goat F(ab′)2 anti-murine IgG Fc specific second antibody coupled with horse radish peroxidase (Invitrogen Inc.).

[6] = system: HER2+ cells SK-BR-3, BT474; test: Flow cytometry binding with HER2 positive breast cancer cells; assay type: cell-based, human; conditions: 6 μg antibody, SK-BR-3 and BT474
Procedure: (§2) After 2 times of thoroughly washing with 4 ml cold PBS, the antibodies binding with the cell surface were detected by R-PE-coupled goat anti-human IgG Fc specific second antibody (15 μl, 25 μg/mL), and then analyzed by flow cytometer (BD FACSCalibur).

[7] = system: BT474 human breast cancer tumor; assay type: in vivo; conditions: 10 mg/kg, three administrations, 37 days after dosing
Procedure: Five millions of BT474 cells were suspended in PBS, and inoculated to the armpit of BALB/c nude mouse (provided by Shanghai Slac Laboratory Animal Co. Ltd., with the certificate No. 2007000540582 and license No. SCXK(hu)2012-0002). After the tumor was formed, the tumor tissue which grew vigorously was taken and cut into about 1.5 mm^3, and inoculated subcutaneously to the right-side armpit of nude mouse under sterile conditions. The diameter of the nude mouse transplantation tumor was measured by vernier caliper. The animals were grouped randomly until the tumor grew up to 100˜300 mm^3.

MDA-MBA468 = test: Flow cytometry binding with HER2 negative cells; assay type: cell-based, human; conditions: 6 μg antibody
Procedure: as §2

[8] = target: T2, HER2 on BT474 cell surface (Homo sapiens, UniProt P04626); test: Flow cytometry binding curve with HER2 on BT474 cell surface; conditions: BT474 cells, antibody titration, read-out: Binding affinity Kd
T2 construct: HER2 which was endogenously expressed in human breast cancer cells; endogenous in cells; host or cells: BT474 human breast cancer cells
Procedure: as §2

[9] = system: BT474 human breast cancer transplantation tumor; test: Tumor inhibition of RC48, BT474 human breast cancer transplantation tumor model; assay type: in vivo, nude mouse; conditions: 10 mg/kg, administered three times
Description: Human breast cancer BT474 nude mouse transplantation tumor model was established by inoculating BT474 cells into nude mouse subcutaneously. After growing continuously in vivo for 3 generations, the tumor tissue which grew vigorously was taken and cut into about 1.5 mm3, and inoculated subcutaneously to right-side armpit of nude mouse (provided by Shanghai Slac Laboratory Animal Co. Ltd., with the certificate No. 2007000540582 and license No. SCXK(hu)2012-0002) under sterile conditions. The diameter of the nude mouse transplantation tumor was measured by vernier caliper. The animals were grouped randomly until the tumor grew up to 100˜300 mm3.

HER4 = HER4 (Homo sapiens, UniProt Q15303); test: Antigen binding specificity ELISA; conditions: 20 ng antigen per well
Procedure: [Worded in the source for another target; used here, by the source, with some conditions changed.] (§3) HER2-ECD as described above was used as the antigen for immunizing the mouse and monoclonal antibody generation. Immunization, hybridoma cells fusion and primary screen were conducted according to standard procedures (reference: WHO Technical Report Series, No. 822, 1992 Annex 3). Four Balb/c mice (commercially obtained from Shanghai Slac Laboratory Animal Co. Ltd.) were immunized with equal volume of well-blended 0.25 ml HER2-ECD protein (50-100 μg) and 0.25 ml Freund's complete adjuvant (Difco Lab). Two weeks later, the second injection was carried out with Freund's incomplete adjuvant (Difco Lab) in which the amount of antigen was 25-50 μg/0.5 ml/mouse. Three weeks later, the third injection was carried out in which the amount was the same with that in the second injection. Ten days after the third injection the blood was drawn. The mice serum were detected by enzyme-linked immunosorbent assay (ELISA), and the spleens of the two mice with highest anti-HER2 antibody titer in serum were taken, which were then fused with the myeloma cell P3X63Ag8 (ATCC CRL-1580). The fused cells were diluted onto ten 96-well plates, and the preliminary screen was carried out through ELISA method depending on the binding capacity with HER2-ECD. In a classical ELISA assay, the Nunc Maxisord 96-well plate was coated with HER2-ECD (0.2-1 μg/ml), and then incubated with gradient diluted mouse serum or hybridoma supernatant (100 μL). Murine-derived anti-HER2 antibody was detected by the goat F(ab′)2 anti-murine IgG Fc specific second antibody coupled with horse radish peroxidase (Invitrogen Inc.).

EGFR = EGFR (Homo sapiens, UniProt P00533); test: Antigen binding specificity ELISA; conditions: 20 ng antigen per well
Procedure: [Worded in the source for another target; used here, by the source, with some conditions changed.] as §3

HER2 = HER2 (Homo sapiens, UniProt P04626); test: Antigen binding specificity ELISA; conditions: 20 ng antigen per well
Procedure: as §3

HER3 = HER3 (Homo sapiens, UniProt P21860); test: Antigen binding specificity ELISA; conditions: 20 ng antigen per well
Procedure: [Worded in the source for another target; used here, by the source, with some conditions changed.] as §3

HER4, sequence (Q15303 26-1308, species assumed): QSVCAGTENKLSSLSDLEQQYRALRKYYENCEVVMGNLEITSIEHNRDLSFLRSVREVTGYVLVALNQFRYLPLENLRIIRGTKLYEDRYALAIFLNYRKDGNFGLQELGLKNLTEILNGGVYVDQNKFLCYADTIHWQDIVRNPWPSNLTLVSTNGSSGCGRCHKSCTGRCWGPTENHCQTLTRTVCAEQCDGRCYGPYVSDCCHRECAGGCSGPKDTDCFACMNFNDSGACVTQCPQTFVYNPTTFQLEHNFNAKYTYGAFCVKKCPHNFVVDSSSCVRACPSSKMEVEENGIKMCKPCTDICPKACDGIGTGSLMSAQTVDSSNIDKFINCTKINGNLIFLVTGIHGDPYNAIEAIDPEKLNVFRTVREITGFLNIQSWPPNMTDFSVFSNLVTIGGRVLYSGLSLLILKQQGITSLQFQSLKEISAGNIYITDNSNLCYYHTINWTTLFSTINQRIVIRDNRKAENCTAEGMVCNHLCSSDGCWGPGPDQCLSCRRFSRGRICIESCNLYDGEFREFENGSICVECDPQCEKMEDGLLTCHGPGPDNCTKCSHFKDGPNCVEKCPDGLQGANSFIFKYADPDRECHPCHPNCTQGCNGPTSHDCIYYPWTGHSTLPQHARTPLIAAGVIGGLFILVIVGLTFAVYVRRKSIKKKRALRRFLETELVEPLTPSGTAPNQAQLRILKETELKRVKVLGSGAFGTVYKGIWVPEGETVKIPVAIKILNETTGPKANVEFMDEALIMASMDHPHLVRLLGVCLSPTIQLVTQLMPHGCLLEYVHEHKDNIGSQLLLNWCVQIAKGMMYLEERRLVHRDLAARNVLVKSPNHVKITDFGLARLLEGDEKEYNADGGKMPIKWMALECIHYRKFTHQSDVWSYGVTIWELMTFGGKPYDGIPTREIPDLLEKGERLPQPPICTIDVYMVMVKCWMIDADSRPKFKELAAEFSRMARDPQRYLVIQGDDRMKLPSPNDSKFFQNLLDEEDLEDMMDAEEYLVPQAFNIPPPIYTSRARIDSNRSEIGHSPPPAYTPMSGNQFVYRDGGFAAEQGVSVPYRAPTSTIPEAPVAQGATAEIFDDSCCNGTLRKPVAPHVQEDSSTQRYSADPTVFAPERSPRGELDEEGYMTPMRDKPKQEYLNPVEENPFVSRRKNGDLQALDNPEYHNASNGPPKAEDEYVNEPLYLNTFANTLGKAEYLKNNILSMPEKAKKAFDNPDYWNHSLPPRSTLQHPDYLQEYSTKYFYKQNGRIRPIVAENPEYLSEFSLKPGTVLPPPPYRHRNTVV

Rituxan: monoclonal antibody drug against lymphocytoma such as NHL
total response rate ([1]; Phase II clinical study, NHL, used alone): 6%
effective rate ([1]; in combination with standard chemotherapy, chronic lymphocytoma): up to 90%

brentuximab vedotin
patients achieving partial response ([2]; Phase II, 102 patients): 40%
overall response rate ([2]; median treatment course 6.7 months): 73%
complete response rate ([2]; median treatment course 20.5 months): 34%

CS(=O)(=O)CCNCc1ccc(-c2ccc3ncnc(Nc4ccc(OCc5cccc(F)c5)c(Cl)c4)c3c2)o1 [Lapatinib]
tumor-inhibition rate [3]: 78%
tumor-inhibition rate ([4]; 200 mg/kg, dosing everyday): 45%

CC[C@H](C)[C@@H]([C@@H](CC(=O)N1CCC[C@H]1[C@H](OC)[C@@H](C)C(=O)N[C@H](C)[C@@H](O)c1ccccc1)OC)N(C)C(=O)[C@@H](NC(=O)[C@@H](NC)C(C)C)C(C)C [MMAE, Monomethyl auristatin E, reference compound] (H-[NMeV]V[Dil][Dolaproine]-X1)
animals found dead during the experiment ([5]; 0.48 mg/kg MMAE control group, single tail vein infusion, 21 days): 9/10

T-DM1
tumor-inhibition rate ([4]; 5 mg/kg, once per week, totally 2 times): 58%

B1: RC48: humanized anti-HER2 antibody RC48, derived from mRC48 antibody by humanized engineering; human IgG1κ (antibody, chains of the INN, looked up, V domains shown)
VH: EVQLVQSGAEVKKPGATVKISCKVSGYTFTDYYIHWVQQAPGKGLEWMGRVNPDHGDSYYNQKFKDKATITADKSTDTAYMELSSLRSEDTAVYFCARNYLFDHWGQGTLVTVSS
VL: DIQMTQSPSSVSASVGDRVTITCKASQDVGTAVAWYQQKPGKAPKLLIYWASIRHTGVPSRFSGSGSGTDFTLTISSLQPEDFATYYCHQFATYTFGGGTKVEIK
Kd (HER2-ECD): 0.044 nM
binding with HER2 positive cells [6]: strong binding; also recorded: higher binding affinity
tumor volume as % of the control group [7]: 83%
toxicity response symptom ([5]; 40 mg/kg, single intravenous infusion): no evident toxicity response symptom
maximal tolerant dose of rat ([5]; single intravenous infusion): ≥ 40 mg/kg
binding with HER2 negative cells (MDA-MBA468): no binding
Kd [8]: 4 nM
tumor-inhibitory effect on BT474 tumors [9]: inhibited; also recorded: significantly better tumor-inhibitory effect
binding capacity with HER4 (HER4): nearly had no binding capacity; also recorded: not with EGFR, HER3 and HER4
binding capacity with EGFR (EGFR): nearly had no binding capacity; also recorded: not with EGFR, HER3 and HER4
binding capacity with HER2 (HER2): strong binding capacity; also recorded: only shows specific binding affinity with HER2
binding capacity with HER3 (HER3): nearly had no binding capacity; also recorded: not with EGFR, HER3 and HER4
